Assay results taken from patent US20030166567.

Biological target: T1, 19-mer (SEQ ID NO:11) cleavage domain peptide
T1 chain: PRCGNPDVANYNFFPRKPK

B1: Proenzyme pro-MMP-9 (protein)
chain: APRQRQSTLVLFPGDLRTNLTDRQLAEEYLYRYGYTRVAEMRGESKSLGPALLLLQKQLSLPETGELDSATLKAMRTPRCGVPDLGRFQTFEGDLKWHHHNITYWIQNYSEDLPRAVIDDAFARAFALWSAVTPLTFTRVYSRDADIVIQFGVAEHGDGYPFDGKDGLLAHAFPPGPGIQGDAHFDDDELWSLGKGVVVPTRFGNADGAACHFPFIFEGRSYSACTTDGRSDGLPWCSTTANYDTDDRFGFCPSERLYTQDGNADGKPCQFPFIFQGQSYSACTTDGRSDGYRWCATTANYDRDKLFGFCPTRADSTVMGGNSAGELCVFPFTFLGKEYSTCTSEGRGDGRLWCATTSNFDSDKKWGFCPDQGYSLFLVAAHEFGHALGLDHSSVPEALMYPMYRFTEGPPLHKDDVNGIRHLYGPRPEPEPRPPTTTTPQPTAPPTVCPTGPPTVHPSERPTAGPTGPPSAGPTGPPTAGPSTATTVPLSPVDDACNVNIFDAIAEIGNQLYLFKDGKYWRFSEGRGSRPQGPFLIADKWPALPRKLDSVFEERLSKKLFFFSGRQVWVYTGASVLGPRRLDKLGLGADVAQVTGALRSGRGKMLLFSGRRLWRFDVKAQMVDPRSASEVDRMFPGVPLDTHDVFQYREKAYFCQDRFYWRVSSRSELNQVDQVGYVTYDILQCPED
anti-activation (splicing) assay: conversion of pro-MMP-9 by stromilysin, followed by HPLC: Titrating the standard splicing reaction with the 19-mer (SEQ ID NO:11) peptide prevents the conversion of pro-MMP-9 into the prodomain and the active enzyme ... Splicing can be inhibited in a dose dependent manner with micromolar 19-mer (SEQ ID NO:11) peptide
